# In the nanobody polyreactivity screen of Harvey et al. (2022):
# Experiment: yeast display, Sf9 membrane polyspecificity reagent, FACS + sequencing; frameworks hold sequencing errors
# Method in brief: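 Galactose-induced (36–48 hours) yeast carrying a synthetic nanobody display library were exposed to 10% biotinylated, detergent-solubilized Sf9 membrane reagent at 4 °C for 1 hour. FACS followed streptavidin microbead enrichment, using low and high (top ~1%) gates for expression (anti-HA) and reagent binding (streptavidin). Colony PCR, MiSeq 2 × 250 sequencing and CDR-length filtering followed. Labels for polyreactivity reflect the gate of origin.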
row,Sequence,polyreactivity (PSR sort gate)
1,QVQHVHSGGGLVQAGGSLRLTCAASGSTFVGNAMVRYRQATGKERELVATISNSGGRTYYADSVKGRFTISRDNPKNTVYLQMNSLKAEDTAVYFCAADHPAFVPVYSFDYWGQGTQVNVSS,low polyreactivity
2,QVQLVESGGGLVQAGGSLRLSCAASGSIFATYAMGWYRQAPGKERELVAAISSSGSRTYYADSVKGRFTISRDNAKNTVYLQMNSLKPEDTAVYYCAKAYLSPYQYDYWGQGTQVTVSS,high polyreactivity
3,QVQLVESGGGLVQAGGSLRLSCASSGRIFSNYAMGWYRQAPGKERELVAAISWRTSNTYYADSVKGRFTISRDNAKYTVYLQMNSQKPEDTAVYYCAKYRRFRPYGSNGIYDYWGQGTQVSVSS,high polyreactivity
4,QVQLVESGGGLVQAGGSLRLSCAASGSISVANAMGWYRQAPGKERELVAGITSSGSTYYADSVKGRFTISRDNAKNTVYLQMNSLKPEDTAVYYCNADVHYSTFYTVVVSLYYWGQGSQVTVSS,low polyreactivity
5,QVQLVESGGGLVQAGGSLRLSCAASGLTFAFYAMGWYRQAPGKEREFVAAITTGGSTYYADSVKGRFTISRDNAKNTVYLQMNSLKPEDTAVYYCAADLYRRRGQFDYWGQGTQVTVSS,high polyreactivity
6,QVQLVESGGGLVQAGGSLRLTCAASGLIFGYNAMGWYRQAPGKEREFVAGISVIDGRTYYADSVKGRFTISRDNAKNTVYLQMISLKPEDTAVYYCAADRWYKYYFLTYGYWGQGTQVTVSS,low polyreactivity
7,QVQLVESGGGLVQAGGSLRLSCAASGSIFNPNAMGWYRQAPGKEREVVAAIDSGGTTDYADSVKGRFTISRDNAKNTVYLQINSLKPEDTAVYYCNADRTVTSSSFTDYDYWGQGTQVTVSS,high polyreactivity
8,QVQLVESGGGLVQAGGSLRLSCAASGSTFHSYAMGWYRQAPGKERELVAGITWGGGTYYADSVKGRFTISRDNAKNTVYLQMNSLKPEDTAVYYCAALSYVGSNVYTGAPAAPYDYWGQGTQVTVSS,low polyreactivity
9,QVQLVEKGGGLVQAGGSLRLSCAASGRTFRSNAMGWYRQAPGKERELVAAIRSRGGSTYYADSVKGRFTISRDNAKNTVYLQMNSLKPEDTAVYYCAAKHGSTSHDSWGQGTQVTVSS,high polyreactivity
10,QVQLVESGGGLVQAGGSLRLSCADSGSNFRTYVMGWYRQAPGNERDMVAAITNGISTNYADSVKGRFTISRDNAKNSVYLQMISMKPEDTAVYYCAAGFRSTYYTFRFGYWGQGTQVTVST,high polyreactivity
11,QVQHVESGGGLVQAGGSLRLSCAASGGIFYYNTMGWYRQAPGKERELVAAITGGGRTNYADSVKGRFTISRDNAKNTVYLQMNSLKPEDTAVYYCNAVYWRTRMDYWGQGTQVTVSS,high polyreactivity
12,QVQLVESGGGLVQAGGSLRLSCAASGSIFVLNAMGLYRQAPGKERELVAGISSSGGSTYYADSVKGRFTISRDNAKNTVYLQMNSLKPEDTAVYYFAKDAGLYEGDYWGQGTQVTVSS,low polyreactivity
13,QVQLVESGGGLVQAGGSLRLSCAASGRTFVVYTMGWYRQAPGKERELVAAISWRGGTTYYADSVKGRFTISRDNAKNTVYLQMNSLKPEDTAVYYCAARVVYYYRERYYWGQGTQVTVSS,high polyreactivity
14,QVQLVESGGGLFQAGGSLRLSCAASGSTFSPNGMGWYRQSPGKERELVAVISTTGGGTYYADSVKVRFTISRDNAKNTVYLQLNSLKPEDTAVYYCAADVWTYSWSWRKYVEFNYWGQGTQVTVSS,high polyreactivity
15,QVQLVESGGGLVQAGGSLRLSCAASGRIFSTYAMGWYRQAPGKERELVAAITNSAGSTYYADSVKGRFTISRDNAKNTVYLHMNSLKPEDTALYYCATGWSRISYGFDYWGQGTLVTVSS,low polyreactivity
16,QVQLVESGGGLVQAGGSLRLSCAASGSIFQGNAMGWYRQAPGKERELVAAISQSGGRTYYADSVKGRFTITRDNAKNTVYLQMNSLKPEDTAVYYCNTTKVYRLRFDYWGQGTQVTVSS,low polyreactivity
17,QVQLVESGGGLVQAGGSLRLSCAASGRTFYGYTMGWYRQAPGKERELVAAISWTGGRTYYADSVKGRFTISRDNAKNTVYLQMNSLKPEDTAVYYCAARRYQSEDVPYGYWGQGTQVTVSS,high polyreactivity
18,QVQLVESGGGLVQAGGSLRLSCAASGSTFDSNAMGWYRQAPGKERELVAAIRFSGGSTNYADSVKGRFTISRDNAKNTVYLQMNSLKPEDTAVYYCAARYPNLRRRWYYYWGQGTQVTVSS,high polyreactivity
19,QVKLVESGGGLVQAGGSLRLSCAASGFTFSGYDMGWYRQAPGKERELVAGISSGGVSTTYADSVKGRFTISRDNAKNTVYLQMNSLIPEDTAVYYCNAEWTSFDWGQGTQVTVSS,low polyreactivity
20,QVQLVESGGGLVQAGGSLRLSCAASGLTFKENVMGWYRQAPGKERELVAAISTGASTYYADSVKGRCTISRDNAKNTVYLQMNSLKPEDTAVYYGAKRVTRWYGYWGQGTQVTVSS,high polyreactivity
21,QVQLVESGGGLVQAGGSLRLSCAASGLTFRVYDMGWYRQAPGKERELVAAITGGGRTYYADSVKGRFTISRDNAKNTVYLQMNSLKPEDTAVYYCAARTRVTKREYDYWGQGTQVTVSS,high polyreactivity
22,QVQLVESGGGLVQAGGSLRLSCASSGRTFYIYDMGWYRQAPGKERELVAAITSVGSTNYADSVKGRFTISRDNAMNTVYLQMNSLKPEDTAVYYCAAESTVGTSGDYDYWGQGTQVTVSS,low polyreactivity

row,Sequence,polyreactivity (PSR sort gate)
1,QVHLVESGGGLVQAGGSLRLSCAASGFPFGSYAMGWDRPAPGKERELVSGISRGGSTNYADSVKGRFTISRDNAKNTVYLQMNSLKPEDTAVYYCAARAVFVADTGATPAGYDYWGQGTQVTVSS,low polyreactivity
2,QVQLVESGGGLVQAGGSLRLSCAASGSIFSLNAMGWYRPAPGKERELVAVINRSGTRTYYADSVKGRFTISRDNAKNTVYLQMNSLKPEDTAVYYCNAQPSSGSDAQNEYWGQGTQVTVSS,high polyreactivity
3,QVQLLESGGGLVQAGGSLRITCAASGFTFAVYAMGWYRQAPGKERELVAAISRSGTRTYYADSVKGRFTISRDNAKNTVYLLMNSLKPEDTAVYYCAADKYRHGYDYWGQGTQVTVSS,low polyreactivity
4,QVQLVESGGGLVQAGGSLRLSCAASGRTFGFYTMGWYRPAPGKERELVAAITSRGGITTYADSVKGRFTISRDNAKNTVYLQLNSLIPEDTAVYYCAASLRAPSLGHYYYWGQGTQVTVSS,high polyreactivity
5,QVQLVESGGGLVQAGGSLRLSCAASGRTFQYYAMGWYRQAPGQERELVAAITSGGSTYYADSVKGRFTISRDNAKNTVYLQMNSLKPEDTAVYYCAATFYYSGHYDYWGQGTQVTVSS,low polyreactivity
6,QVQLVESGGGLVQAGGSLRLSCAASGNTFRSYAMGWYRQAPGKERELVAAISSTGNTYYADSVKGRFTISRDNAKNTVYLQMNSLKPEDTAVYYCAASKWRRADYYYWGQGTQVTVSS,high polyreactivity
7,QVQLLETGGGLVQAGGSLRLSCAASGIPFDIYTMGWYIQAPGKERELVAASSYSGGTTYYADSVKGRFTISRDNAKNTVYLQMISLKPEDTAVYYCAAYEGTYFTEVDYWGQGTQVTVSS,low polyreactivity
8,QDQLVESGGGLVQAGGSLRLSCAASGFIFGRYTMGWYRQAPGQDRELVAAISSRGGSTYDADSGKGRFTISRDNAKNTVYLQMNSLKPEDTAVYYCNALRRPSTEGRDYWGQGTQVTVSS,high polyreactivity
9,QVQLVESGGGLVQAGGSLRLSFAASGRMFTGYAMGWYRQAHGKERELVADITSDGGTYYADSVKGRFTISRDNAKNSVYLQMNSLKPEDTAVYYCAAPRVVFGSSGEDDHWGQGTQVTVSS,low polyreactivity
10,QVQLVESGGGLVQAGGSLRLSCAASGRIFNGNAMGWYRQAPGKEREFVAAITWNGGRTYYADSVKGRFTISRDYAKNTVYLQMNSLKPEDTAVYYCNADPYHRRSSGDYWGQGTQVTVSS,high polyreactivity
11,QVQHVESGGGLVQAGVSLRLSCAASGSTITYNAMGWYRQAPGKERELVAAITVSDGSTYYADSVKGRFTISRDNAKNTVYLQMNSLKPEDTAVYYCNAYAVYLRYLWYDYWGQGTQVTVSS,low polyreactivity
12,QVQLVESGGGLVQAGRSLRLSCAASGITFDDYDMGCYRQAPGKEREFVAAISFSGSSTYYADSVKGRFTISRDNAKNTVYLLMNSLKPEDTAVYYCNADYVYSGCLYYGKDYWFDYWGHGTQVTVSS,low polyreactivity
13,QVQLVESGGGLVQAGGSHRLSCAASGRIFNNNAMGWYRQAPGTEREFVAAISSGGGSTYYADSVKGRFTISRDNAKNTVYLQMNSLKPEDTAVYYCAARRHGRVDYSQGSRESYYWGQGTQVTVSS,high polyreactivity
14,QVQLVESGGGLVQAGGSLRLSCAASGRTFPAYAMGWYRQAPGKERELVAGISKRGGSTYYADSVKGRFTISRDNAKNTVYFQMNSLKPEDTAVYYCNAEGHLFRYDSWGQGTQVTVSS,high polyreactivity
15,QVQLVESGGGLVQAGRSLRLSCAASGSTILYYAMGWYRQAHGKERELVARITTRGSRTYYADSVKGRFTISRDNAKNTVYLQMNSLKPEDTAVYYCNKVRPGYGVTYLVGYWGQGTQVTVSS,high polyreactivity
16,QVQLVESGGGLVQAGGSLRLSCAASGRTFYDNAMGWYRQAPGKERELVAAISWSGGSTYADSVKGRFTISRDNAKNTVYLQMNSLKPEDTAVYYCNADAWLASGYRYDYWGQGTQVTVSS,low polyreactivity
17,QVQLVESGGGLVQAGGSLRLSCAATGRIVRGNAMGWYRQAPGKERELVAAISTRGGRTYYADSVKGRFTISRDNAKNTVYLQMTSLKPQDTAVYYCNKGDSASSLDYWGQGTQVTVSS,high polyreactivity
18,QVQLVESGGGLVQAGGSLRLSCAASGRLFSYYAMGWYRPAPGKERELVAGISYRGGSTYYADSVKGRFTISRDNAKNTVYLQMNSLKPEDTAVYYCAARPYSYGQRSLRGYWGQGTQVTVSS,high polyreactivity
19,QVQLGESGGGLVQAGGSLRLSCAASGRISGYAMGWYRQAPGKERELVAAISKSAARTYYADSVKGRFTISRDNAKNTVYLQMNSLKPEDTAVYYCAADKPYRYDYWGQGTQVTLSS,high polyreactivity
20,QDQLVESGGGLVQAGGSLRLSCAASGLTLLHYAMGWYRQAPGKERELVAAISTRGGSTYYADSVKGRFTISRDNAKNTVYLQMNSLKPEDTADYYCNALKGRPRGTAGYYRVEYWGQGTQVTVSS,high polyreactivity
21,QVQIVESGGGLDQAGGSLRLSCAASGSTFVLNPMGWYRQAPGKERGMVAAISSGGRTYYADSVKGRFTISRDNAKNTVYLQMNSLKPEDTAVYYCAANPYRGGHGTLFGYWGQGSQVTVSS,high polyreactivity
